T1: VP16 fused AR (Example 3) (human, UniProt P10275 36-920)
T1 construct: also called VP16-AR
T1 sequence: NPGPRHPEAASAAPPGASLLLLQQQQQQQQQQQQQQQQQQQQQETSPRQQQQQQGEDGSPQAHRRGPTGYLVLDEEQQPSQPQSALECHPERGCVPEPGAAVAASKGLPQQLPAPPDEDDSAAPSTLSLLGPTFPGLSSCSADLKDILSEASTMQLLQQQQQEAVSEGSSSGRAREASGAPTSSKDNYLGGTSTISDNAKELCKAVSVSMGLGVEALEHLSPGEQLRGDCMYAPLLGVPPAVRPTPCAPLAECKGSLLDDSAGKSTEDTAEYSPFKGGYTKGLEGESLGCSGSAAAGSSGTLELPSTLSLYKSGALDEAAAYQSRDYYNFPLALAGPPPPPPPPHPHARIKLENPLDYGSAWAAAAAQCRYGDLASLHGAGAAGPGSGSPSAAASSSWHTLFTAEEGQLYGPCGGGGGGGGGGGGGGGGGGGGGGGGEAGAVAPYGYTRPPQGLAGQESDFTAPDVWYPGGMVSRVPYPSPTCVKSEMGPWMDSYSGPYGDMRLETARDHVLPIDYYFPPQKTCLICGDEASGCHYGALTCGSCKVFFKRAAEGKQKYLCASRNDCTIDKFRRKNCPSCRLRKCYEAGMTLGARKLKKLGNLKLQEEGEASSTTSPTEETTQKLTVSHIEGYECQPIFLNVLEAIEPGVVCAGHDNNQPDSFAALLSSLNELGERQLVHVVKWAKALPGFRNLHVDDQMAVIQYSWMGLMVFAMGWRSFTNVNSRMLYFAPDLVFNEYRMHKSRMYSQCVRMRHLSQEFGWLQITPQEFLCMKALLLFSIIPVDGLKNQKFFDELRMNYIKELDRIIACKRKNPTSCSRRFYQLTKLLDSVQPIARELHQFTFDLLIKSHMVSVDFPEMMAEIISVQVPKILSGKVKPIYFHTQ

T2: VP16 fused near full-length AR (nAR, aa 36-918) (human, UniProt P10275 36-919)
T2 sequence: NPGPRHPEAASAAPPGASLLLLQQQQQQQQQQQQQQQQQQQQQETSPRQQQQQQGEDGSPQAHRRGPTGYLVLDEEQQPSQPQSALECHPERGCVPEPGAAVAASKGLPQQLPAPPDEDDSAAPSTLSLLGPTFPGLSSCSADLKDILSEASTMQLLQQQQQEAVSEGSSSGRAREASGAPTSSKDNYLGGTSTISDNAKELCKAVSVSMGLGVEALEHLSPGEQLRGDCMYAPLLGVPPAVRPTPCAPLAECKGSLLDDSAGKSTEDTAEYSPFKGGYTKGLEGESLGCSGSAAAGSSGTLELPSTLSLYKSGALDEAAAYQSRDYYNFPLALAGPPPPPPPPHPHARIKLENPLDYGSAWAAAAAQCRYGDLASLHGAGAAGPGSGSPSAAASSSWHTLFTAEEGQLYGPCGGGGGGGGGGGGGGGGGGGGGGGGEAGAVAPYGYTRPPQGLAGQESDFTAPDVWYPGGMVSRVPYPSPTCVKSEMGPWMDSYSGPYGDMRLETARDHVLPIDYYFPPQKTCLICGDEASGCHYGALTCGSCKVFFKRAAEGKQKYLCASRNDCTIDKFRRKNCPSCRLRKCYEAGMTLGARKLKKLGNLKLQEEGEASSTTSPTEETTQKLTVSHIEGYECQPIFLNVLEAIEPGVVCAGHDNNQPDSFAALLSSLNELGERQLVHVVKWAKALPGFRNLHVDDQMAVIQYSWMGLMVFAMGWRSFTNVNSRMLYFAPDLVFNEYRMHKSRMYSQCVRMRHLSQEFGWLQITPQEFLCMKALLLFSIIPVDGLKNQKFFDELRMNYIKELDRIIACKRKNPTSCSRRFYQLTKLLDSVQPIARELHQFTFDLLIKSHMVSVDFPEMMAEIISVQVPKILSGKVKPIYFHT

B1: VP16 fused AR-LBD (aa 590-918) (receptor)
chain: KQKYLCASRNDCTIDKFRRKNCPSCRLRKCYEAGMTLGARKLKKLGNLKLQEEGEASSTTSPTEETTQKLTVSHIEGYECQPIFLNVLEAIEPGVVCAGHDNNQPDSFAALLSSLNELGERQLVHVVKWAKALPGFRNLHVDDQMAVIQYSWMGLMVFAMGWRSFTNVNSRMLYFAPDLVFNEYRMHKSRMYSQCVRMRHLSQEFGWLQITPQEFLCMKALLLFSIIPVDGLKNQKFFDELRMNYIKELDRIIACKRKNPTSCSRRFYQLTKLLDSVQPIARELHQFTFDLLIKSHMVSVDFPEMMAEIISVQVPKILSGKVKPIYFHT
notes: also called pCMX-VP16-AR
B2: ARA70 (mammalian two-hybrid construct of Example 1) (other)
chain: MNTFQDQSGSSSNREPLLRCSDARRDLELAIGGVLRAEQQIKDNLREVKAQIHSCISRHLECLRSREVWLYEQVDLIYQLKEETLQQQAQQLYSLLGQFNCLTHQLECTQNKDLANQVSVCLERLGSLTLKPEDSTVLLFEADTITLRQTITTFGSLKTIQIPEHLMAHASSANIGPFLEKRGCISMPEQKSASGIVAVPFSEWLLGSKPASGYQAPYIPSTDPQDWLTQKQTLENSQTSSRACNFFNNVGGNLKGLENWLLKSEKSSYQKCNSHSTTSSFSIEMEKVGDQELPDQDEMDLSDWLVTPQESHKLRKPENGSRETSEKFKLLFQSYNVNDWLVKTDSCTNCQGNQPKGVEIENLGNLKCLNDHLEAKKPLSTPSMVTEDWLVQNHQDPCKVEEVCRANEPCTSFAECVCDENCEKEALYKWLLKKEGKDKNGMPVEPKPEPEKHKDSLNMWLCPRKEVIEQTKAPKAMTPSRIADSFQVIKNSPLSEWLIRPPYKEGSPKEVPGTEDRAGKQKFKSPMNTSWCSFNTADWVLPGKKMGNLSQLSSGEDKWLLRKKAQEVLLNSPLQEEHNFPPDHYGLPAVCDLFACMQLKVDKEKWLYRTPLQM
notes: pGAL4-VP16 was used to construct a fusion of ARA70; limits and fusion partner not clearly stated
B3: GALAD70-N1: GAL4AD fused ARA70 aa 1-175 (other, not shown: large carriers)
chain: MNTFQDQSGSSSNREPLLRCSDARRDLELAIGGVLRAEQQIKDNLREVKAQIHSCISRHLECLRSREVWLYEQVDLIYQLKEETLQQQAQQLYSLLGQFNCLTHQLECTQNKDLANQVSVCLERLGSLTLKPEDSTVLLFEADTITLRQTITTFGSLKTIQIPEHLMAHASSANI
notes: also called ARA70-N1
B4: GAL4 DBD fused ARA70-C (aa 383-614) (other)
chain: MKLLSSIEQACDICRLKKLKCSKEKPKCAKCLKNNWECRYSPKTKRSPLTRAHLTEVESRLERLEQLFLLIFPREDLDMILKMDSLQDIKALLTGLFVQDNVNKDAVTDRLASVETDMPLTLRQHRISATSSSEESSNKGQRQLTVSSMVTEDWLVQNHQDPCKVEEVCRANEPCTSFAECVCDENCEKEALYKWLLKKEGKDKNGMPVEPKPEPEKHKDSLNMWLCPRKEVIEQTKAPKAMTPSRIADSFQVIKNSPLSEWLIRPPYKEGSPKEVPGTEDRAGKQKFKSPMNTSWCSFNTADWVLPGKKMGNLSQLSSGEDKWLLRKKAQEVLLNSPLQEEHNFPPDHYGLPAVCDLFACMQLKVDKEKWLYRTPLQM
notes: Mammalian two-hybrid
B5: GALAD70-N: GAL4AD fused ARA70 aa 1-401 (other, not shown: large carriers)
chain: MNTFQDQSGSSSNREPLLRCSDARRDLELAIGGVLRAEQQIKDNLREVKAQIHSCISRHLECLRSREVWLYEQVDLIYQLKEETLQQQAQQLYSLLGQFNCLTHQLECTQNKDLANQVSVCLERLGSLTLKPEDSTVLLFEADTITLRQTITTFGSLKTIQIPEHLMAHASSANIGPFLEKRGCISMPEQKSASGIVAVPFSEWLLGSKPASGYQAPYIPSTDPQDWLTQKQTLENSQTSSRACNFFNNVGGNLKGLENWLLKSEKSSYQKCNSHSTTSSFSIEMEKVGDQELPDQDEMDLSDWLVTPQESHKLRKPENGSRETSEKFKLLFQSYNVNDWLVKTDSCTNCQGNQPKGVEIENLGNLKCLNDHLEAKKPLSTPSMVTEDWLVQNHQDPCKVE
notes: the legend says GAL4AD fusions; also called ARA70N peptide (aa 1 to 401); ARA70-N
B6: GAL4 DBD fused Rb fragment (aa 371-928) (other)
chain: MKLLSSIEQACDICRLKKLKCSKEKPKCAKCLKNNWECRYSPKTKRSPLTRAHLTEVESRLERLEQLFLLIFPREDLDMILKMDSLQDIKALLTGLFVQDNVNKDAVTDRLASVETDMPLTLRQHRISATSSSEESSNKGQRQLTVSPHTPVRTVMNTIQQLMMILNSASDQPSENLISYFNNCTVNPKESILKRVKDIGYIFKEKFAKAVGQGCVEIGSQRYKLGVRLYYRVMESMLKSEEERLSIQNFSKLLNDNIFHMSLLACALEVVMATYSRSTSQNLDSGTDLSFPWILNVLNLKAFDFYKVIESFIKAEGNLTREMIKHLERCEHRIMESLAWLSDSPLFDLIKQSKDREGPTDHLESACPLNLPLQNNHTAADMYLSPVRSPKKKGSTTRVNSTANAETQATSAFQTQKPLKSTSLSLFYKKVYRLAYLRLNTLCERLLSEHPELEHIIWTLFQHTLQNEYELMRDRHLDQIMMCSMYGICKVKNIDLKFKIIVTAYKDLPHAVQETFKRVLIKEEEYDSIIVFYNSVFMQRLKTNILQYASTRPPTLSPIPHIPRSPYKFPSSPLRIPGGNIYISPLKSPYKISEGLPTPTKMTPRSRILVSIGESFGTSEKFQKINQMVCNSDRVLKRSAEGSNPPKPLKKLRFDIEGSDEADGSKHLPGESKFQQKLAEMTSTRTRMQKQKMNDSMDTSNKEEK
B7: GALAD70-N2: GAL4AD fused ARA70 aa 176-401 (other, not shown: large carriers)
chain: GPFLEKRGCISMPEQKSASGIVAVPFSEWLLGSKPASGYQAPYIPSTDPQDWLTQKQTLENSQTSSRACNFFNNVGGNLKGLENWLLKSEKSSYQKCNSHSTTSSFSIEMEKVGDQELPDQDEMDLSDWLVTPQESHKLRKPENGSRETSEKFKLLFQSYNVNDWLVKTDSCTNCQGNQPKGVEIENLGNLKCLNDHLEAKKPLSTPSMVTEDWLVQNHQDPCKVE
notes: also called ARA70-N2 peptide (aa 176 to 401); ARA70-N2
B8: GALAD70-C: GAL4AD fused ARA70 aa 383-614 (other, not shown: large carriers)
chain: SMVTEDWLVQNHQDPCKVEEVCRANEPCTSFAECVCDENCEKEALYKWLLKKEGKDKNGMPVEPKPEPEKHKDSLNMWLCPRKEVIEQTKAPKAMTPSRIADSFQVIKNSPLSEWLIRPPYKEGSPKEVPGTEDRAGKQKFKSPMNTSWCSFNTADWVLPGKKMGNLSQLSSGEDKWLLRKKAQEVLLNSPLQEEHNFPPDHYGLPAVCDLFACMQLKVDKEKWLYRTPLQM
notes: also called ARA70-C (aa 383-614)
B9: GAL4 DBD fused ARA70-N1 (aa 1-175) (other)
chain: MKLLSSIEQACDICRLKKLKCSKEKPKCAKCLKNNWECRYSPKTKRSPLTRAHLTEVESRLERLEQLFLLIFPREDLDMILKMDSLQDIKALLTGLFVQDNVNKDAVTDRLASVETDMPLTLRQHRISATSSSEESSNKGQRQLTVSMNTFQDQSGSSSNREPLLRCSDARRDLELAIGGVLRAEQQIKDNLREVKAQIHSCISRHLECLRSREVWLYEQVDLIYQLKEETLQQQAQQLYSLLGQFNCLTHQLECTQNKDLANQVSVCLERLGSLTLKPEDSTVLLFEADTITLRQTITTFGSLKTIQIPEHLMAHASSANI
notes: Mammalian two-hybrid

The target of assay [1] is B6. Kind of assay: mammalian two-hybrid, DU145, CAT.
Assay [2] has as its target pGAL0-AR: GAL4 DBD (a.a. 1-147) fused to hinge and LBD of wtAR (human, UniProt P04386 1-147 (Saccharomyces cerevisiae entry)). Kind of assay: cell-based or functional assay.
The target of assay [3] is T3, GAL4 DBD fused with C-terminal fragment (aa 595-918) of wild-type AR (human, UniProt P04386 1-147 (Saccharomyces cerevisiae entry)).
T3 construct: range 1-147; also called pAS2-AR; pAS2-wtAR
Kind of assay: yeast two-hybrid, 10 nM DHT.
Description: (§1) (B) The domains of ARA70 responsible for AR interaction by yeast two-hybrid assay. The interaction of different domains/motifs of ARA70 with wtAR assayed by plate nutritional selection in the yeast Y190 strain. […] Data were reproducible in two independent transformations.

For assay [4], the target named is T1, VP16 fused AR (Example 3). Kind of assay: mammalian two-hybrid, DU145, pG5-Luc.
The target of assay [5] is T3, GAL4 DBD fused with C-terminal fragment …. Briefly: yeast two-hybrid, plate nutritional selection.
Description: as §1
Assay [6] deals with T2, VP16 fused near full-length AR (nAR, aa …). Kind of assay: cell-based or functional assay.

Results on 10 molecules are retold here after patent US20060270591A1 (published 2006).

Consider B1, for which the binding result in assay [1] was “no binding”.
For B2, the binding result in assay [1] is given as “no binding”. The “CAT activity, mammalian two-hybrid assay” value in assay [2] was determined as 12 fold.
As to B3, the binding result in assay [3] was “no binding”.
As to B4, the binding result in assay [4] is on record as “no binding”.
Consider B5, for which the binding result in assay [5] is given as “binds”.
Consider B6, for which the “CAT activity, mammalian two-hybrid system, DU145 cells” value in assay [6] was 3 fold.
For B7, the binding result in assay [5] was “binds”.
QQLYSLLGQF (peptide, not shown: large carriers, also called ARA70 LXXLL (aa 90 to 99)) [GALAD70-LXXLL: GAL4AD fused ARA70 aa 90-99]: the binding result in assay [3] is listed as “no binding”.
Turning to B8, the binding result in assay [3] was “no binding”.
Turning to B9, the binding result in assay [4] is on record as “no binding”.
